# Results as given in the DeepSol protein solubility set.
# Test: soluble on expression in E. coli; label from the status in PepcDB or PDB records
row,Sequence,soluble on expression in E. coli
1,MGSDKIHHHHHHMLSTTNLTMQFGAKALFENVSVEFGNGNRYGLIGANGSGKTTLMKILGGDLEPSSGHVSLSSGERLGKLRQDQFAFEECTVLDTVIMGHAELWRVKQERDRLYALPEMTDEEGMAVAHVEVEFAELGGYAAESRAGELLSGVGIPLEQHSGLMSAVSPGWKLRVLLAQALFADPDILLLDEPTNNLDIHTIQWLEELISNLNSTVIIISHDRHFLNSVCTHMADLDYGELRIYPGNYDEYMQASTLVRDQLLADNDKKKEKMAELQGFVSRFSANASKAKQATSRARQLEKIQLAEVKPSSRQNPYLVFNQERKLYRNALDGKDLSKSFGDLRLFHKMRLHVEAGERIAIIGSNGLGKTTLLRCLMGELTTDAGEIKWAENARIGYFAQDYAPEFAEDMTLFDWMCQWRGERDDDQVIRGVLGRLLFGQDQVNRSVKVLSGGEKGRMLFGKLTLQKPNVLILDEPTNHLDMESIESLNSALEKYDGTLLFVSHDRAFVSSLATRIIEFTPRGIQDFKGTYEDYLRSQGMG,not soluble
2,MATSSHLNWLIIRNNNAFLLKKRDVKKPFSTEPNNLASVSSYRYSGIVHKKTLGVVPAADKKGFTAVLKKGKYAQRPAKNTVRVDFKAGPRRSLKKLKNLLIGSKYRKDLTQAALRRASAVLRSQKPAPVKGKKAEFAKGKKPELEHHHHHH,not soluble
3,MYIVIMGAGRIGTLVARMLESEGHDVAIIEMNRERAREISEYISGLVIEGDATDQKVLENANIKNANAFAALTGKDDANILACILAKHLNPNIMTILRITDPGKKKIFEDVKELKTYFDIVVSPEDIAANYIFRTLVTPGFNRVLLPREGAEIIQFQIDEDCEVAGKPVKELNLPKDSLIIAVYDEKGNLTIPSGDTIIPKKGQVIIFAKNSALQEVKKIMEKKKKEQ,soluble
4,GMPKLDLDSIERRIGSVYPGRLNAAMDGRSSLRLGDAGGLSQFGVNLVRLEPGAKSSLRHYHMEQDEFVMVTEGALVLVDDQGEHPMVPGDCAAFPAGDPNGHQFVNRTDAPATFLVVGTRTPTETAYYSDMDMMVKQDASGFAFTRKDGSPLTADQIGDDNE,soluble
5,MGSDKIHHHHHHMIKVAVVGTVGIPACYGGFESLVENLTSYTSNKIEYDVFCSSKSYTNKRSHYNGAQLSYIPLNANGVQSIFYDIISLIFCIFKKPDVTLVLGVSGCLFLPVYRLLSKSKIVTNIDGLEWKRDKWSKWAKKFLKFSEYMAVKFSDVVITDNKAIGDYVNAEYSKDNVVIAYGGDHAIIEGKHVGPEQDYYLSLCRIEPENNVQMILNAFSKSQHKLKFVGNWNSSEFGRKLKREFSDQPNIDIVDPIYDVNQLFKLRSECKGYVHGHSAGGTNPSLVEAMHFEKTIFAFDCNFNRYTTEDKAVYFSSSKELNDKLTEVTKDELAVISTDMKQIADRRYTWKVINHMYEETYL,not soluble
6,MLSIISKYLLIASYICSYLEPRYDASIFSRKTRIIQGRAAYGRRKKKEVNPRYLQPSLFAIERLLAIFQAIFPIQGKAESGSLSALREESLMKANIEVFQNLSELHTLKLIATTMNKNIDYLSPKVRWKVNVPWEIIKEISESVHFNISDYFSD,not soluble
7,SKREMPSMYPQAKGILSALKEKGIEMAIASRSPTSDIANTFLDKLNIKPMFVAKEIYSSWSHKTEHFQKIHTRTGVPFTAMLFFDDEDRNIKSVSKMGVTSILVGDGVTLGAFRQGLTEFTQN,not soluble
8,GPGSTRCQRERLLYVRRFDPVRGYHLRAAEDISVGTIIFQDECRPVRLCTKPYALQHFSKADYVDFQHNAWPVGRDGHYYALWDHDPAQWRAFNHSCEPNMSFAPMRSLDVVALRNIPKGEELTMDYRQFMDSTMPGFQCNCGTEKCEGFVSPGSLVDSPTAKIASQPTVALRHNIAVRLNPI,not soluble
9,MPNPRRIVFGDVHGHFDALTALFEAIAPNERDGVYFVGDLIDRGPESAKVVDFVMENKYHCLLGNHEQMMLDAVGGFNFSPQLLHAWIYSGGKSTLESYEHQIPQSHVDWMRNLPLYLDLGDVWLVHAGVDPRLPIEEQGEAQFCWIRDEFHRYPYPYFANKLIITGHTITFTFANVEPGKLVSGPGWLDIDTGAYHPKSGWLTALELNNQEVYQAHIFTNEVRRLPLEDAVVPLPPQNLHRLEHHHHHH,not soluble
10,MNADGWLADTRSSYDTVAVSYADQLRGALAGTPYLRAALELFAGMIHTAGGGPVADVGCGPGHVTAHLHGLGVDAFGIDLSPAMIDVARRDHPDLRFEVGSMTDLNLADASVTALLAFWSLIHVPDDAIPAVFGHFRRVVRPGGPLLLGFHIGDESRLKTEGYGGHPMKVHVHHRQPVQVTAWLRDAGFTVEAQWLLGLDGHIPGAVLFAHRQSLEHHHHHH,not soluble
11,MQEYTNHSDTTFALRNISFRVPGRTLLHPLSLTFPAGKVTGLIGHNGSGKSTLLKMLGRHQPPSEGEILLDAQPLESWSSKAFARKVAYLPQQLPPAEGMTVRELVAIGRYPWHGALGRFGAADREKVEEAISLVGLKPLAHRLVDSLSGGERQRAWIAMLVAQDSRCLLLDEPTSALDIAHQVDVLALVHRLSQERGLTVIAVLHDINMAARYCDYLVALRSGEMIAQGTPAEIMRGETLEMIYGIPMGILPHPAGAAPVSFVY,not soluble
12,MSLPIDEHVNAVKTVVVPAAGLGTRFLPATKTVPKELLPVVDTPGIELIAAEAAELGATRLAIITAPNKAGVLAHFERSSELEETLMERGKTDQVEIIRRAADLIKAVPVTQDKPLGLGHAVGLAESVLDDDEDVVAVMLPDDLVLPTGVMERMAQVRAEFGGSVLCAVEVSEADVSKYGIFEIEADTKDSDVKKVKGMVEKPAIEDAPSRLAATGRYLLDRKIFDALRRITPGAGGELQLTDAIDLLIDEGHPVHIVIHQGKRHDLGNPGGYIPACVDFGLSHPVYGAQLKDAIKQILAEHEAAERIADDSQVKLEHHHHHH,soluble
13,EHLRLDNDQREKYIQEARNMGSTIRQPKLSNLSPSVIAQTNWKFVEGLLKECRNKTKRMLVEKMGREAVELGHGEVNITGVEENTLIASLCDLLERIWSHGLQVKQGKSALWSHLLHYQENRQRKLTSGSLSTSGILLDSERRKSDASAVMSPLRISLIQDMRHIQNIGEIKTDVGKARAWVRLSMEKKLLSRHLKQLLSDHELTKKLYKRYAFLRCDDEKEQFLYHLLSFNAVDYFCFTNVFTTILIPYHILIVPSKKLGGSMFTANPWICISGELGETQILQIPRNVLEMTFECQNLGKLTTVQIGHDNSGLYAKWLVECVMVRNEVTGHTYKFPCGRWLGKGMDDGSLERVLVGELLTSLPEVDERPCRTPPLQQSPSVIR,soluble
14,MEDELPIIKGKKVILFAPTFRGSGHGTAHYPFFKIDFERLARYCEKNNAVVLFKMHPFVKNRLNIADKHKQYFVDVSDFREVNDILFITDLLISDYSSLIYEYAVFKKPMIFYAFDLEDYITTRDFYEPYESFVPGKIVQSFDALMDALDNEDYEGEKVIPFLDKHFKYQDGRSSERLVRNLFGS,soluble
15,MTEMAKGSVTHQRLIALLSQEGADFRVVTHEAVGKCEAVSEIRGTALGQGAKALVCKVKGNGVNQHVLAILAADQQADLSQLASHIGGLRASLASPAEVDELTGCVFGAIPPFSFHPKLKLVADPLLFERFDEIAFNAGMLDKSVILKTADYLRIAQPELVNFRRTA,soluble
16,MGSDKIHHHHHHMKIVYFVDGLNRGGVESVVCHLSSSFAKLRNKIYIICLHKDMNDLHLEIPEYISVFYLPFESNRNHHVNYIRYLPNLVDLLKKIKPDIVHAHNSSFSYFFLSIGILLSRTVPVNIRSIHFSGFFLEKRTIEDKIRFIFDWCACRLLKTIIISVGPTVSRVVKRLYTSNQHLTIVNGIDTKEKFCKRNLTKSCMGISEDKYVAVYVARICEGKNHDTLIKAWEIVTQYHPSALLLFIGDGPLKEQYQSVVHEKSLDDKITFTGSIPNIVEYLSIADVGVFPSESEGLPLVLMEMMAVELPVVASKIPSCCDLIEENVNGILYETYDYKDLANKILSVLCDNELKKKLGEQAKLLVCNHYSIENMINRHNILYQKLLLKQNFTDAYN,not soluble
17,MTQDPHQTADILIIGGGLSGSMLAAQLLRRPGQRRILIIETRSELGRGEAYSATEPGHTLNGNAARMSVDPDNAHDLTEWLTGYLAEGGWPEAAEQKIPVAELFPPRGVFGLYVQQRLREAQVVGEGFGSTVGHVRAEAVDVQVSEQGVSVTLADGRELRGSQAVLATGMYAASRTPQRESNALNAASLDPWDVSVMQQLDPQTRVLIIGSGLTMVDALVSLEKAGHRGPIQVFSRHGLLPHVRRQPPEWSDFLAQDPSIRSTRQLVRKVREQCELAIESGIDWQAPLDTVRANVGRLWNQATDTQRRQFVRHVRPWWESHHHRSPPPSAALLARLVKQGRLSIEAASLQGVASLPSGQVQISVRRRGEHEPTHILGDALINSTGIEYDWRRVDRPLPRQLLARGLIQPGPLALGIAAAHDGAVLDAQGQRSAHLFAMGPPLRGMWWESTAVTDVAIQAKALAMRLALEHHHHHH,soluble
18,MNAWEVNFDGLVGLTHHYAGLSFGNEASTRHRFQVSNPRLAAKQGLLKMKALADAGFPQAVIPPHERPFIPVLRQLGFSGSDEQVLEKVARQAPHWLSSVSSASPMWVANAATIAPSADTLDGKVHLTVANLNNKFHRSLEAPVTESLLKAIFNDEEKFSVHSALPQVALLGDEGAANHNRLGGHYGEPGMQLFVYGREEGNDTRPSRYPARQTREASEAVARLNQVNPQQVIFAQQNPDVIDQGVFHNDVIAVSNRQVLFCHQQAFARQSQLLANLRARVNGFMAIEVPATQVSVSDTVSTYLFNSQLLSRDDGSMMLVLPQECREHAGVWGYLNELLAADNPISELKVFDLRESMANGGGPACLRLRVVLTEEERRAVNPAVMMNDTLFNALNDWVDRYYRDRLTAADLADPQLLREGREALDVLSQLLNLGSVYPFQREGGGNG,soluble
19,MVRSFIYEPFQIPSGSMMPTLLIGDFILVEKFAYGIKDPIYQKTLIETGHPKRGDIVVFKYPEDPKLDYIKRAVGLPGDKVTYDPVSKELTIQPGCSSGQACENALPVTYSNVEPSDFVQTFSRRNGGEATSGFFEVPKNETKENGIRLSERKETLGDVTHRILTVPIAQDQVGMYYQQPGQQLATWIVPPGQYFMMGDNRDNSADSRYWGFVPEANLVGRATAIWMSFDKQEGEWPTGLRLSRIGGIH,soluble
20,YCTLADLQLAIPQATLTQLTNDVPADYSVAQEPNLAVVEEAVRQAEELVDAHLRGRYVLPLVTVPSVIKDNTVNLARHWLYARRPEGNELPDAVTRTYKAALQILESIRDGKLHIGVPTGEAAPEPGEVRVRARRQLFSASM,not soluble
21,MEIKEITIIGGYDKNGNPEPVREVTIKRGEIVGVVGPTGSGKSNLISDIEQLAQGDTISKRRILVNGEVPPIEMRRDPKKRRIAQLSQNMNFLADMTVEEFILMHAKSRGVYRENIVDEVIELANRLTGEPIKKDYNLTILSGGQSRSLMVADVAVISDSPIVLIDEIENAGIKKHEALELLAGYGKIVLVITHDPVLALMTDRRIVMRNGGMQKIIETTEEEKEISRKINEVDNWLLSLREKIRFGERLTHEDISLMVKG,soluble
22,HHSVEAPQVKKRMGKFPFVKASKKESEEISKQLHNALDIELPSESTVWLRDKDVWLFPDALEPMIGELRFSRMGIKIAEAHKNGYRWQHQVATALATGAESNAIELTIEEAREWYMGRDVRPQIIPEGLKTGKGEVLVKYQGAIIGLGKWVSNRIKNGLPRELVRDKNLF,not soluble
23,MITPKGTHDAVAKFQKTDLHQDLDYIVLQQRRTQLETLINERESFVKNLCSLFHKIQNTKNYQEFVDVLAENRDLLREIFTVENGFQKQKWISNDDIPQIDWDKFALDINAYIAENDQLLALYEDGLL,not soluble
24,MVQDWHQQEKARMIQTLTGTKAVYGSEVESKIIEFAIVGADEVVAEKLGVSIGDFVYKIIRLRIIHSIPTIMEHTWMPISVIPGVEASVLEESIYSHIQNKLGLEVGTSVVRVKGIRPDDREKQFMNLTNQDFLMRVEQVAYLTDGRTFEYSYADHLPETFEFETVITAKKL,not soluble
